We go through 1 molecule from PMC8765073 (mAbs, 2022).

Experiment [1] concerns the target RBD of SARS-CoV-1 (Tor 2) (SARS-CoV-1, Tor2, UniProt P59594). Put plainly: BLI. (BLI is a label-free optical method that tracks binding on a fibre tip over time.)
Experiment [2] concerns the target RBD of pangolin CoV (PCoV-GD1) (Pangolin coronavirus GD/1/2019 …). Put plainly: BLI.

B1: D27LEY (antibody, V domains shown)
VH: QVQLQQSGAEVKKPGSSVKVSCKASGGTFGNWSISWVRQAPGQGLEWMGGIAPGRGEATYAQKFQGRVTITTDESTSTAYMELSSLRSEDTAVYYCARETWYTSGGMDVWGQGTTVTVSS
VL: SYELTQPPSVSVAPGKTARITCGGNNIGRKSVHWYQQKPGQAPVLVVYDDSDRPSGIPERFSGSNSGNTATLTISRVEAGDEADYYCQVYDLWSSDYVFGTGTKVEIK
As for B1, the Kd was below 0.001 nM in experiment [1] and 0.66 nM in experiment [2].

What is called Kd is the equilibrium constant for the complex coming apart.
